The assay concerns developing oligodendrocytes and myelin. In words: IFN-γ-overexpressing mice crossed to PLP/SOCS1 mice: tremor, oligodendrocyte density, G ratio, unmyelinated axons at postnatal day 21. It is filed as in vivo. As to conditions: for Incidence of tremor: 172 × PLP/SOCS1 system. From the text:
The transgenic mice MBP/IFN-γ and GFAP/tTA×TRE/IFN-γ (lines 184/110 and 184/67) that overexpress IFN-γ in the CNS have been described elsewhere (Corbin et al., 1996; Gao et al., 2000; Lin et al., 2004, 2005). Briefly, MBP/IFN-γ mice are transgenic animals in which IFN-γ expression is driven by the myelin basic protein (MBP) transcriptional control region (Gao et al., 2000). GFAP/tTA×TRE/IFN-γ are double-transgenic mice obtained by mating single-transgenic GFAP/tTA to single-transgenic TRE/IFN-γ (lines 110 and 67) mice. The two TRE/IFN-γ mouse lines, line 110 and line 67, used in the experiments produce different amounts of IFN-γ when crossed to GFAP/tTA mice (184/110 and 184/67) (Lin et al., 2004, 2005). GFAP/tTA×TRE/IFN-γ is a tetracycline-off-inducible system in which the glial fibrilary acidic protein (GFAP) transcriptional control region drives the expression of tTA, which in turn, binds to the TRE (tet responsive element) and initiates the expression of IFN-γ. Administration of doxycycline suppresses tTA DNA binding and IFN-γ expression, and doxycycline removal allows for temporally-controlled induction of IFN-γ expression (Gao et al., 1999).
IFN-γ-overexpressing mice were crossed to the PLP/SOCS1 mice in double-transgenic, (MBP/IFN-γ×PLP/SOCS1) and triple-transgenic (GFAP/tTA×TRE/IFN-γ×PLP/SOCS1) mating systems. MBP/IFN-γ×PLP/SOCS1 (172×PLP/SOCS1) mating was performed according to a standard mating protocol. The GFAP/tTA×TRE/IFN-γ×PLP/SOCS1 matings were performed in a 2-step mating process: GFAP/tTA mice were initially crossed to PLP/SOCS1 mice, and double-positive (184×PLP/SOCS1) offspring were then crossed to the TRE/IFN-γ lines 110 and 67, separately. This second mating step was performed according to the previously described “tet-off” protocol. Doxycycline 0.05 mg/ml (Sigma-Aldich) was added to the water of impregnated female mice until embryonic day 14, after which the animals were switched back to normal water, thereby allowing initiation of IFN-γ transcription, which peaks during the postnatal period (Lin et al., 2005).
The litters of the mating systems (F1 generation) were examined daily and sacrificed at postnatal day 21. Clinical evaluation included behavioral observation and challenged ladder walking to elicit tremor. Histological examination included quantitation of the number and density of oligodendrocytes and examination of the myelination patterns. Brain tissue was simultaneously obtained from each animal at the time of sacrifice to verify and measure the expression of IFN-γ and Flag-SOCS1 (see below). The clinical and histological findings were subsequently stratified according to genotype. All animal procedures were conducted in compliance with the National Institutes of Health Guide for Care and Use of Laboratory Animals and were approved by the Institutional Animal Care and Use Committee at The University of Chicago.
Oligodendrocyte cell density was assessed digitally using Axiovision software, at postnatal day 21, as previously described (Lin et al., 2005). The brains were sectioned sagittally through the corpus callosum dividing the brain in two symmetrical halves. Ten frozen sections from each half were prepared at 7 μm thickness, and numbered in the sequence of their preparation. The brains of three animals per study group were prepared in this fashion. Following the CC1 immunostaining the corresponding area of corpus callosum of each section was digitally selected and the corresponding total area obtained. CC1 cell counting was performed manually within the selected areas of each section, and the number of CC1 positive cells per square area (mm^2) calculated. The results were presented as mean±SD of CC1 (+) cells/mm^2 with n=3 animals per study group. […]

Where [1] appears, read: 184/67×PLP/SOCS1 mice (IFN-γ and SOCS1).
The mark [2] stands for this setting: 184/110×PLP/SOCS1 mice (IFN-γ and SOCS1).

The text below walks through data of patent US8415106B2, “Cell-based screen for agents useful for reducing neuronal demyelination or promoting neuronal remyelination” (Myelin Repair Foundation, Inc., priority 2005, dated 2013).

B1: IFN-γ: pleotropic cytokine secreted by activated T lymphocytes and natural killer cells; recombinant rat IFN-γ added to cultures or transgenically expressed in mouse CNS (protein, UniProt P01581 23-156, looked up)
Interferon gamma: QGTLIESLESLKNYFNSSSMDAMEGKSLLLDIWRNWQKDGNTKILESQIISFYLRLFEVLKDNQAISNNISVIESHLITNFFSNSKAKKDAFMSIAKFEVNNPQIQHKAVNELIRVIHQLSPESSLRKRKRSRC
In the case of B1, the Incidence of tremor reads like this: (mice expressing IFN-γ only) 0%; (mice expressing both IFN-γ and SOCS1) 0%. Moreover, the “G ratio (axon diameter/fiber diameter ratio)” value reads like this: (184/67 mice (IFN-γ only)) 0.95±0.04; under setting [1], 0.82±0.08; (184/110 mice (IFN-γ only), hypomyelination defined as G ratio >0.8) 0.89±0.02; under setting [2], 0.75±0.03. For the same molecule, the “percentage of unmyelinated axons” value runs as follows: (184/67 mice (IFN-γ only)) 57%±7; under setting [1], 17%±4.5; (184/110 mice (IFN-γ only)) 41%±6; under setting [2], 13%±3; (MBP/IFN-γ×PLP/SOCS1 (172×PLP/SOCS1) littermates, regardless of genotype) “less than 9%”. For the same molecule, the oligodendrocytes lost entry reads like this: (184/67 mice (IFN-γ only) versus wild-type) “approximately 40%”; (184/67×PLP/SOCS1 mice (IFN-γ and SOCS1) versus PLP/SOCS1) “approximately 15%”; (184/110 mice (IFN-γ only) versus wild-type) “approximately 20%”; (184/110×PLP/SOCS1 mice (IFN-γ and SOCS1) versus PLP/SOCS1) “approximately 8%”. For the same molecule, the oligodendrocyte density (184/67 mice (IFN-γ only), wild-type 144±5) is 79±9 CC1 (+) cells/mm^2; the oligodendrocyte density (184/67×PLP/SOCS1 mice (IFN-γ and SOCS1), PLP/SOCS1 142±5) is on record as 112±7 CC1 (+) cells/mm^2; the oligodendrocyte density (184/110 mice (IFN-γ only), wild-type 146±6) is reported as 115±8 CC1 (+) cells/mm^2; the oligodendrocyte density (184/110×PLP/SOCS1 mice (IFN-γ and SOCS1), PLP/SOCS1 141±6) is 129±6 CC1 (+) cells/mm^2.
